The supplement of paper PMC10567573

B1: DFFB (parent)
chain: KLNCDPSRIYKPQTRLKRKQPVRK
B2: EPB41L3 (parent)
chain: KKFLTLGSKFRYSGRTQAQTRRAS

Variants of: B1
Assay: protein stability index of a GFP-peptide fusion (GPS, HEK-293T) (PSI 1-6); higher = more stable
Details: c terminus: a fixed tail appended
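Also: lentivirally expressed fusions sorted by FACS into six bins by GFP to DsRed ratio, PSI derived from sequencing read proportions per bin multiplied by bin number.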

Protein stability index, by site and new letter:
N3: L 3.06 | S 4.17 | G 4.4 | T 3.96 | D 4.07 | E 4.44 | M 3.19 | A 4.21 | H 3.75 | V 3.96 | C 3.73 | K 4.07 | P 3.97 | I 2.89 | Y 3.29 | W 3.21 | F 3.03 | R 4.24 | Q 3.53
T14: A 3.56 | C 3.61
I9: V 3.52 | A 3.57 | F 3.83 | S 2.51 | Q 3.9 | G 3.47 | D 4.04 | H 3.31 | E 3.93 | R 2.91 | W 2.82 | T 3.31 | M 3.3 | L 3.81 | K 3.84 | Y 3.32 | N 4.01 | C 4.01
P12: R 3.33 | L 2.86 | N 4.49 | S 3.89 | T 3.69 | K 3.46 | C 3.21 | D 3.09 | Y 2.79 | Q 2.24 | E 4.24 | H 3.13 | F 3.38 | M 3.31 | G 3.3 | A 3.47 | I 2.85 | W 3.21
K1: T 3.87 | Q 3.37 | A 4.14 | P 3.54 | G 3.13 | L 3.8 | F 2.63 | C 3.2 | M 2.65 | V 3.57 | N 3.47 | R 4.11 | W 3.65 | E 3.42 | D 4.23 | Y 3.24 | H 1.93 | I 2.06 | S 2.92
C4: K 3.58 | T 3.62 | R 4.12 | P 4.03 | G 2.77 | S 3.66 | V 4.06 | E 3.65 | D 3.88 | F 3.5 | Y 3.51 | L 3.24 | W 3.56 | N 3.74 | Q 3.78 | H 3.5 | M 2.35 | I 2.73 | A 3.75
Y10: E 3.56 | V 2.94 | S 4.16 | W 3.47 | D 3.55 | R 3.56 | M 3.38 | I 3.6 | A 2.92 | H 3.86 | L 3.84 | C 3.62 | G 2.28 | N 3.57 | K 3.21 | Q 2.75 | P 3.72 | T 3.35 | F 2.58
L2: F 3.96 | A 4.27 | H 2.95 | K 2.28 | Q 4.16 | R 4.01 | Y 3.55 | M 4.09 | I 3.2 | N 4.5 | C 3.55 | G 4.94 | T 4.12 | S 4.16 | V 4.01 | D 4.89 | P 4.57 | W 2.73 | E 4.52
P6: E 4.13 | L 3.12 | K 4.03 | F 2.92 | A 3.45 | S 3.71 | V 2.89 | Q 3.62 | H 3.39 | N 3.79 | W 3.08 | T 3.56 | I 3.11 | Y 3.5 | D 4.05 | G 3.44 | M 3.16 | C 3.22 | R 3.7
R8: F 3.55 | G 3.83 | E 4.21 | C 3.63 | P 3.58 | A 3.84 | I 2.93 | H 3.61 | Y 2.77 | W 3.29 | D 3.63 | M 3.23 | Q 3.57 | K 4 | N 3.38 | T 2.81 | V 2.94 | S 3.2 | L 2.9
S7: I 3.41 | R 2.98 | K 3.21 | H 3.21 | G 3.5 | L 3.73 | W 3.78 | Y 2.73 | A 3.28 | N 3.55 | E 3.53 | M 3.07 | F 3.34 | T 3.46 | Q 3.87 | C 3.52 | D 3.36 | V 3.21 | P 3.19
D5: A 3.46 | F 3.08 | M 2.71 | I 2.74 | E 2.9 | L 3.06 | C 4.16 | G 3.35 | H 3.48 | T 2.92 | Q 3.32 | Y 3.75 | W 2.71 | V 2.98 | P 3.25 | R 3.34 | K 3.8 | N 3.96 | S 3.35
K11: S 2.89 | W 3.3 | V 3.95 | H 2.94 | P 3.15 | E 4.3 | A 4.01 | F 3.09 | G 3.17 | N 2.98 | L 2.99 | M 3.02 | I 3.16 | Q 2.07 | T 3.2 | R 3.53 | D 3.21 | C 3.9 | Y 3.94
Q13: W 3.6 | L 3.09 | E 4.16 | S 3.44 | H 4.35 | P 3.76 | I 3.24 | Y 3.46 | G 3.56 | V 3.8 | N 3 | M 3.51 | T 3.66 | C 3.56 | R 3.08 | A 4.01 | K 4.12 | D 3.83

Variants of: B2
Assay: as above
Details: c terminus: a fixed tail appended

Protein stability index, by site and new letter:
Q19: N 3.41 | W 2.58 | S 2.45 | T 2.61 | P 3.19 | Y 2.22 | I 2.37 | R 3.03
R22: N 1.87 | K 3.1 | A 2.08 | Y 2.13 | S 2.7 | Q 2.44 | M 1.75 | P 2.52 | E 2.72 | D 2.24 | V 2.64 | F 2.05 | T 3.24 | L 2.19 | W 1.41 | I 2.02
R21: T 2.24 | Y 2.48 | W 2.85 | D 2.69 | N 2.1 | S 3.24 | I 2.16 | F 1.98 | L 1.61 | K 3.75 | E 2.2 | A 1.96 | V 3.27 | M 1.86
T20: C 3.77 | I 3.28 | P 2.81 | G 1.9 | H 2.91 | V 3.28 | A 2.64 | F 2.28 | K 3.2 | R 3.47 | M 2.32 | S 3.56 | N 2.62 | Y 2.69 | L 2.06 | D 2.33
A23: L 3.66 | K 3.81 | G 3.69 | N 2.85 | R 4.08 | T 2.92 | M 2.49 | S 2.96 | E 3.21 | I 3.4 | Y 2.13 | D 2.53 | Q 3.27 | W 3.26 | C 2.24 | H 3 | P 2.5
S24: R 3.68 | N 2.83 | H 2.25 | F 2.36 | V 2.15 | M 2.5 | W 2.57 | G 2.65 | C 2.1 | I 2.5 | Y 2.66 | L 2 | P 2.57 | Q 2.51 | T 3.46 | D 3.31 | K 3.64
